Activity data for 2 sequences are collected here from patent US20130059388.

The test system of series [1] is MAPRE3 ZFN of pair 31/32 (second) (synthetic). The series can be described thus: cell_activity. As to conditions: Cel-1 efficiency of ZFN pair 31/32; no productive tag integration.
The subject of series [2] is MAPRE3 ZFN of pair 31/32 (first) (synthetic). The series can be described thus: cell_activity. As to conditions: Cel-1 efficiency of ZFN pair 31/32; no productive tag integration.

Consider “AGGAAGGATTCGCAC (double strand) [MAPRE3 half-site 2]”, for which the activity in series [1] was 21%.
With “TTCCTCTCTCTCCCAC (double strand) [MAPRE3 half-site 1]”, the activity in series [2] was found to be 21%.
